Biological target: integrin αvβ3 expressed on cells (human) (UniProt P06756)
Test: cell-based or functional assay

integrin αvβ3 expressed on cells (human), sequence (P06756 31-1048, chain 1 of 2): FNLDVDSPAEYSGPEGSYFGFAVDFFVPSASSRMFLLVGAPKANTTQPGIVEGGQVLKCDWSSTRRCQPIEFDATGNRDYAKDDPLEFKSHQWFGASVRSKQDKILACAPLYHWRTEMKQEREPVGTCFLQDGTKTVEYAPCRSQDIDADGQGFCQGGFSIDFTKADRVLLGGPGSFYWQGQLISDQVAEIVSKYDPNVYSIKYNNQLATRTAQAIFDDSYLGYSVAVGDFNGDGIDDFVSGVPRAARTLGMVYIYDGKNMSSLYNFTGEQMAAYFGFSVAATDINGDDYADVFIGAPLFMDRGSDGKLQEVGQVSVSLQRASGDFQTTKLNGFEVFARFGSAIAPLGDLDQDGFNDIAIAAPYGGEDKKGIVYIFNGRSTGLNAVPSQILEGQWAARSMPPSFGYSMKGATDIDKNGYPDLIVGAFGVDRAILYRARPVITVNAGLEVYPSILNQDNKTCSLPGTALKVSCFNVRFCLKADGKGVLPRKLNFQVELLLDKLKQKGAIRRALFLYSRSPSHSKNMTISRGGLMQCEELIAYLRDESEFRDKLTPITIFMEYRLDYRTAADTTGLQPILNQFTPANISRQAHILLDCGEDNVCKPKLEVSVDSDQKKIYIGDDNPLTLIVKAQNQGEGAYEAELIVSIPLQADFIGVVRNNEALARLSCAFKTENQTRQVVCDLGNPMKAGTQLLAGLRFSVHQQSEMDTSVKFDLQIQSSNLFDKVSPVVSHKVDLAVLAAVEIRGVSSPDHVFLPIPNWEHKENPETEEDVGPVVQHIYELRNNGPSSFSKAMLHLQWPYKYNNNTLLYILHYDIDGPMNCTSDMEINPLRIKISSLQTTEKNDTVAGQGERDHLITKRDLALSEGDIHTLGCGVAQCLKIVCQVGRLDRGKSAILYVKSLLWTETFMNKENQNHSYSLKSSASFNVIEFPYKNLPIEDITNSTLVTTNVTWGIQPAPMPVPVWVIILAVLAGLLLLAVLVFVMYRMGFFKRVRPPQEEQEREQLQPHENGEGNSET
integrin αvβ3 expressed on cells (human), sequence (P05106 27-788, chain 2 of 2, further chain): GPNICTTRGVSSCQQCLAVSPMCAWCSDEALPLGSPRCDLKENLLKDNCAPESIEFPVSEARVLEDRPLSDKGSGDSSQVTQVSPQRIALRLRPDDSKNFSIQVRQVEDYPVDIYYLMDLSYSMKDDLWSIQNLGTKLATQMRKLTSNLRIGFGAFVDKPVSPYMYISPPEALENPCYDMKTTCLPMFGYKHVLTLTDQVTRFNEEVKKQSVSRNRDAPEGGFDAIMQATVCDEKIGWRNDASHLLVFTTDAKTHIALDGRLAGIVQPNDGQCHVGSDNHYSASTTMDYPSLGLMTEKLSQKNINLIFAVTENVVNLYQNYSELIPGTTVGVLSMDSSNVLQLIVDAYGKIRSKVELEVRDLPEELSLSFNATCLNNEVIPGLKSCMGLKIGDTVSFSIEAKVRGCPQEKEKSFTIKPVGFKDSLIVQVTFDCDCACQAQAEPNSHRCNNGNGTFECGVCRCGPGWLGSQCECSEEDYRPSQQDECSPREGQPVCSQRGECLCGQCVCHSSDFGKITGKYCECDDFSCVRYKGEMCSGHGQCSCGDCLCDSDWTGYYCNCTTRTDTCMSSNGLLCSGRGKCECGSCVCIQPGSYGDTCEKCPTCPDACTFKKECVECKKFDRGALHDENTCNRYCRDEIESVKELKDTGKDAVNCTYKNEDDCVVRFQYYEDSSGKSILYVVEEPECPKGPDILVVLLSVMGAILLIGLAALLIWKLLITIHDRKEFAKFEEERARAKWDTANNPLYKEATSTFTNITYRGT

inhibition of vitronectin-induced migration of endothelial cells (transwell): 60% | inhibitory concentration for 50% maximal adhesion (M21 cell adhesion to fibrinogen): 50 ng/mL
Substance: monoclonal antibody LM609 (murine IgG)
